Experimental data taken from the RNAGym collection of RNA variant scans (doi:10.7554/elife.90254).

B1: LINE1-full (parent)
chain: UACGUAGGUGGUUUUCCCCUGAUAGUGCUAAGGGGGCCUGGAAGUUUGGACUGGGCAGAGCUCAACACAGCGUGGCAAAGUGGCUGUGGCUAGACUGCCUCUCUGGAUUCCUCGUCACUCAGCAGGGCAUCUCUGAGAGAAAUGCC

Variants of: B1
Assay: self-cleavage, relative activity (ratio to wild type); higher = more cleavage; in vitro, sequencing; the parent is a self-cleaving ribozyme

Question: With UACGUAGGUGGAUUUCCCCUGGUAGUGCUAAGGGGGCCUGGAAGUUUGGACUGGGCAGAGCUCAACACAGCGUGGCAAAGUGGCUGUGGCUAGACUGCCUCUCUGGAUUCCUCGUCACUCAGCAGGGCAUCUCUGAGAGAAAUGCC [U12A A22G] as the variant, how does the self-cleavage read?
Answer: Its self-cleavage is 1.14.

Question: With UACGUAGGUGGAUUUCCCCUGAUAGUGCUUAGGGGGCCUGGAAGUUUGGACUGGGCAGAGCUCAACACAGCGUGGCAAAGUGGCUGUGGCUAGACUGCCUCUCUGGAUUCCUCGUCACUCAGCAGGGCAUCUCUGAGAGAAAUGCC [U12A A30U] as the variant, how does the self-cleavage read?
Answer: The self-cleavage was 1.63.

Question: With UACGUAGGUGGAUUUCCCCUGAUAGUGCUAUGGGGGCCUGGAAGUUUGGACUGGGCAGAGCUCAACACAGCGUGGCAAAGUGGCUGUGGCUAGACUGCCUCUCUGGAUUCCUCGUCACUCAGCAGGGCAUCUCUGAGAGAAAUGCC [U12A A31U] as the variant, how does the self-cleavage read?
Answer: Its self-cleavage is 2.

Question: Which self-cleavage does the source give for UACGUAGGUGGAUUUCCCCUGAUAGUGCUAAGGGGGCCUGGGAGUUUGGACUGGGCAGAGCUCAACACAGCGUGGCAAAGUGGCUGUGGCUAGACUGCCUCUCUGGAUUCCUCGUCACUCAGCAGGGCAUCUCUGAGAGAAAUGCC [U12A A42G] here?
Answer: Its self-cleavage is 1.28.

Question: For UACGUAGGUGGAUUUCCCCUGAUAGUGCUAAGGGGGCCUGGUAGUUUGGACUGGGCAGAGCUCAACACAGCGUGGCAAAGUGGCUGUGGCUAGACUGCCUCUCUGGAUUCCUCGUCACUCAGCAGGGCAUCUCUGAGAGAAAUGCC [U12A A42U], which self-cleavage is on record?
Answer: Its self-cleavage is 1.75.

Question: Which self-cleavage does the source give for UACGUAGGUGGAUUUCCCCUGAUAGUGCUAAGGGGGCCUGGAGGUUUGGACUGGGCAGAGCUCAACACAGCGUGGCAAAGUGGCUGUGGCUAGACUGCCUCUCUGGAUUCCUCGUCACUCAGCAGGGCAUCUCUGAGAGAAAUGCC [U12A A43G] here?
Answer: Its self-cleavage is 0.85.

Question: With UACGUAGGUGGAUUUCCCCUGAUAGUGCUAAGGGGGCCUGGAAGUUUGGACUGGGCGGAGCUCAACACAGCGUGGCAAAGUGGCUGUGGCUAGACUGCCUCUCUGGAUUCCUCGUCACUCAGCAGGGCAUCUCUGAGAGAAAUGCC [U12A A57G] as the variant, how does the self-cleavage read?
Answer: Its self-cleavage is 1.23.

Question: Which self-cleavage does the source give for UACGUAGGUGGAUUUCCCCUGAUAGUGCUAAGGGGGCCUGGAAGUUUGGACUGGGCAGCGCUCAACACAGCGUGGCAAAGUGGCUGUGGCUAGACUGCCUCUCUGGAUUCCUCGUCACUCAGCAGGGCAUCUCUGAGAGAAAUGCC [U12A A59C] here?
Answer: Its self-cleavage is 0.61.

Question: With UACGUAGGUGGAUUUCCCCUGAUAGUGCUAAGGGGGCCUGGAAGUUUGGACUGGGCAGGGCUCAACACAGCGUGGCAAAGUGGCUGUGGCUAGACUGCCUCUCUGGAUUCCUCGUCACUCAGCAGGGCAUCUCUGAGAGAAAUGCC [U12A A59G] as the variant, how does the self-cleavage read?
Answer: Its self-cleavage is 0.27.

Question: With UACGUAGGUGGAUUUCCCCUGAUAGUGCUAAGGGGGCCUGGAAGUUUGGACUGGGCAGAGCUCGACACAGCGUGGCAAAGUGGCUGUGGCUAGACUGCCUCUCUGGAUUCCUCGUCACUCAGCAGGGCAUCUCUGAGAGAAAUGCC [U12A A64G] as the variant, how does the self-cleavage read?
Answer: The self-cleavage was 0.27.

Question: With UACGUAGGUGGAUUUCCCCUGAUAGUGCUAAGGGGGCCUGGAAGUUUGGACUGGGCAGAGCUCUACACAGCGUGGCAAAGUGGCUGUGGCUAGACUGCCUCUCUGGAUUCCUCGUCACUCAGCAGGGCAUCUCUGAGAGAAAUGCC [U12A A64U] as the variant, how does the self-cleavage read?
Answer: The self-cleavage was 0.79.

Question: With UACGUAGGUGGAUUUCCCCUGAUAGUGCUAAGGGGGCCUGGAAGUUUGGACUGGGCAGAGCUCAACACAGCGUGGCAAAGUGGCUGUGGCUGGACUGCCUCUCUGGAUUCCUCGUCACUCAGCAGGGCAUCUCUGAGAGAAAUGCC [U12A A92G] as the variant, how does the self-cleavage read?
Answer: Its self-cleavage is 0.

Question: With UACGUAGGUGGAUUUCCCCUGAUAGUGCUAAGGGGGCCUGGAAGUUUGGACUGGGCAGAGCUCAACACAGCGUGGCAAAGUGGCUGUGGCUAGUCUGCCUCUCUGGAUUCCUCGUCACUCAGCAGGGCAUCUCUGAGAGAAAUGCC [U12A A94U] as the variant, how does the self-cleavage read?
Answer: Its self-cleavage is 0.51.

Question: For UACGUAGGUGGAUUUCCCCUGAUAGUGCUAAGGGGGCCUGGAAGUUUGGACUGGGCAGAGCUCAACACAGCGUGGCAAAGUGGCUGUGGCUAGACUGCCUCUCUGGUUUCCUCGUCACUCAGCAGGGCAUCUCUGAGAGAAAUGCC [U12A A107U], which self-cleavage is on record?
Answer: Its self-cleavage is 1.61.

Question: With UACGUAGGUGGAUUUCCCCUGAUAGUGCUAAGGGGGCCUGGAAGUUUGGACUGGGCAGAGCUCAACACAGCGUGGCAAAGUGGCUGUGGCUAGACUGCCUCUCUGGAUUCCUCGUCUCUCAGCAGGGCAUCUCUGAGAGAAAUGCC [U12A A117U] as the variant, how does the self-cleavage read?
Answer: Its self-cleavage is 1.36.

Question: Which self-cleavage does the source give for UACGUAGGUGGAUUUCCCCUGAUAGUGCUAAGGGGGCCUGGAAGUUUGGACUGGGCAGAGCUCAACACAGCGUGGCAAAGUGGCUGUGGCUAGACUGCCUCUCUGGAUUCCUCGUCACUCAGCGGGGCAUCUCUGAGAGAAAUGCC [U12A A124G] here?
Answer: Its self-cleavage is 0.87.

Question: For UACGUAGGUGGAUUUCCCCUGAUAGUGCUAAGGGGGCCUGGAAGUUUGGACUGGGCAGAGCUCAACACAGCGUGGCAAAGUGGCUGUGGCUAGACUGCCUCUCUGGAUUCCUCGUCACUCAGCUGGGCAUCUCUGAGAGAAAUGCC [U12A A124U], which self-cleavage is on record?
Answer: Its self-cleavage is 1.23.

Question: Which self-cleavage does the source give for UACGUAGGUGGAUUUCCCCUGAUAGUGCUAAGGGGGCCUGGAAGUUUGGACUGGGCAGAGCUCAACACAGCGUGGCAAAGUGGCUGUGGCUAGACUGCCUCUCUGGAUUCCUCGUCACUCAGCAGGGCAUCUCUGGGAGAAAUGCC [U12A A136G] here?
Answer: The self-cleavage was 2.03.

Question: With UACGUAGGUGGAUUUCCCCUGAUAGUGCUAAGGGGGCCUGGAAGUUUGGACUGGGCAGAGCUCAACACAGCGUGGCAAAGUGGCUGUGGCUAGACUGCCUCUCUGGAUUCCUCGUCACUCAGCAGGGCAUCUCUGAGUGAAAUGCC [U12A A138U] as the variant, how does the self-cleavage read?
Answer: The self-cleavage was 1.02.

Question: Which self-cleavage does the source give for UACGUAGGUGGAUUUCCCCUGAUAGUGCUAAGGGGGCCUGGAAGUUUGGACUGGGCAGAGCUCAACACAGCGUGGCAAAGUGGCUGUGGCUAGACUGCCUCUCUGGAUUCCUCGUCACUCAGCAGGGCAUCUCUGAGAGAUAUGCC [U12A A141U] here?
Answer: Its self-cleavage is 0.64.
